5 molecules from patent US20120034232A1 (INNATE PHARMA, published 2012) can be followed below.

Assay [1] addresses recombinant human His-tagged TLR3 extracellular domain recombinant protein (R&D systems, #1487-TR-050) (human) (UniProt O15455). The experiment in a line: SPR (Biacore T100), rhTLR3 immobilised on CM5 chip, antibody in solution, bivalent affinity, pH 5.6, mean of 2 or 3 experiments.
Assay [2] shares this target. Description: SPR (Biacore T100), rhTLR3 immobilised on CM5 chip, antibody in solution, bivalent affinity, pH 7.2, mean of 2 or 3 experiments.
Assay [3] addresses T1, human TLR3 expressed in cells (293T cells stably transfected with pUNO-hTLR3); endogenous TLR3 of human … (human, UniProt O15455 24-904). Description: cell-based or functional assay.
The target of assay [4] is T1, human TLR3 expressed in cells (293T …). Description: cell-based or functional assay. The source holds these as a separate data set.
The target in assay [5] is T2, recombinant human His-tagged TLR3 extracellular domain recombinant protein (R&D systems, #1487-TR-050) (human, UniProt O15455 24-704).
T2 construct: Bought protein; also called recombinant human TLR3; rhTLR3; not shown: His tag
The experiment in a line: ELISA, His-tagged rec TLR3 (reference: His-tagged rec TLR4) on Ni-NTA plates, hybridoma supernatant.

Residue numbers refer to the chain shown, from its start.

As to “anti-TLR3 antibody TLR3.7 (eBiosciences)”, the Kd in assay [1] worked out at 9 nM; in assay [2], 45 nM.

B1: anti-TLR3 monoclonal antibody 23C8 (antibody, V domains shown)
VH: EVQLQQSGPELVKPGASVKISCKASGYSFTGYFMHWVKQSHVKSLEWIGRINPYNGATSYNQNFKDKASLTVDKSSSTSYMELHSLTSEDSAVYYCVRDDGGNYPFDYWGQGTTLTVS
VL: DIQMTQSPASLSASVGETVTITCRASENIYSYLAWYQQKQGKSPQLLVYYAKTLAEGVPSRFSGSGTGTQFSLKINSLQPEDFGSYYCQHHYGTPYTFGGGTKLEIK
Turning to B1, the “IC50 of inhibition of luciferase expression in 293-huTLR3 cells, polyAU 300 µg/ml” value in assay [3] was 1.83 µg/mL. In assay [4], the “IC50 of inhibition of luciferase expression, polyAU 100 µg/ml” value is less than 5 µg/mL. Also, in assay [5], the “ratio of DO obtained in TLR3 ELISA to DO obtained in TLR4 ELISA” value (from here on “ratio of DO obtained in TLR3 ELISA”) is more than 10.

B2: anti-TLR3 monoclonal antibody 28F11 (antibody, V domains shown)
VH: EVQLQQSGPELVKPGASVKISCKASGYSFTGYYIHWVKQSHVKSLEWIGRINPYYGATSYNQNFKDKANLTVDKSSSTAYMELHSLTSDDSAVYYCARSTKLGYLDYWGQGTTLTVS
VL: B1 VL with Y32N, V48I, Y50N, T67S, F71Y, S72F, Y96F
Consider B2, for which, in assay [3], the “IC50 of inhibition of luciferase expression in 293-huTLR3 cells, polyAU 300 µg/ml” value was 5.56 µg/mL. Besides, in assay [5], the “ratio of DO obtained in TLR3 ELISA” value is more than 10.

B3: anti-TLR3 monoclonal antibody 34A3 (antibody, V domains shown)
VH: EIQLQQSGPELVKPGASVKVSCKASGYVFTTYSIYWVKQSHGKSLEWIGYIDPYNGDTSYNQKFKGKATLTVDKSSSTAYMHLNSLTSEDSTVYYCAREGNYYGYFDYWGQGTTLTVS
VL: QIVLTQSPALMSASPGEKVTMTCSASSSVSYMFWYQQKPRSSPKPWIYLTSNLASGVPARFSGSGSGTSYSLTISSMEAEDAATYYCQQWTGNPPTFGGGTKLEIK
B3: in assay [4], the “IC50 of inhibition of luciferase expression, polyAU 100 µg/ml” value is less than 5 µg/mL.

B4: anti-TLR3 monoclonal antibody 29H3 (antibody, V domains shown)
VH: DVQLQESGPDLVKPSQSLSLTCTVTGYSITSGYSWHWIRQFLGNKLEWMGYIHYSGITNYNPSLRSRISFTRDTSKNQFFLQLNSVTTEDTATYYCARDGYYGMDYWGQGTSVTVS
VL: DIVMTQSQKFMSTSVGDRVSITCKASQNVRTSVAWYQQKPGQSPKALIYLASNRHTGVPDRFTGSGSGTDFTLTVSNIQSEDLADYFCLQHWNYPYTFGGGTKLEIK
notes: also called 29H3.7; CNCM I-4187
For B4, the “ratio of DO obtained in TLR3 ELISA” value in assay [5] was more than 10.
